Assay results as given in patent publication US20210290759A1 (BRAVOVAX, published 2021).

Experiments:
[1] = molecular target: TLR-5 receptor on THP-1 cells (UniProt O60602); experiment: cell-based or functional assay
[2] = molecular target: TLR-5 receptor on THP-1 cells (UniProt O60602 21-858); experiment: cell-based or functional assay
Chain of TLR-5 receptor on THP-1 cells (UniProt O60602 21-858) (O60602 21-858 limits assumed): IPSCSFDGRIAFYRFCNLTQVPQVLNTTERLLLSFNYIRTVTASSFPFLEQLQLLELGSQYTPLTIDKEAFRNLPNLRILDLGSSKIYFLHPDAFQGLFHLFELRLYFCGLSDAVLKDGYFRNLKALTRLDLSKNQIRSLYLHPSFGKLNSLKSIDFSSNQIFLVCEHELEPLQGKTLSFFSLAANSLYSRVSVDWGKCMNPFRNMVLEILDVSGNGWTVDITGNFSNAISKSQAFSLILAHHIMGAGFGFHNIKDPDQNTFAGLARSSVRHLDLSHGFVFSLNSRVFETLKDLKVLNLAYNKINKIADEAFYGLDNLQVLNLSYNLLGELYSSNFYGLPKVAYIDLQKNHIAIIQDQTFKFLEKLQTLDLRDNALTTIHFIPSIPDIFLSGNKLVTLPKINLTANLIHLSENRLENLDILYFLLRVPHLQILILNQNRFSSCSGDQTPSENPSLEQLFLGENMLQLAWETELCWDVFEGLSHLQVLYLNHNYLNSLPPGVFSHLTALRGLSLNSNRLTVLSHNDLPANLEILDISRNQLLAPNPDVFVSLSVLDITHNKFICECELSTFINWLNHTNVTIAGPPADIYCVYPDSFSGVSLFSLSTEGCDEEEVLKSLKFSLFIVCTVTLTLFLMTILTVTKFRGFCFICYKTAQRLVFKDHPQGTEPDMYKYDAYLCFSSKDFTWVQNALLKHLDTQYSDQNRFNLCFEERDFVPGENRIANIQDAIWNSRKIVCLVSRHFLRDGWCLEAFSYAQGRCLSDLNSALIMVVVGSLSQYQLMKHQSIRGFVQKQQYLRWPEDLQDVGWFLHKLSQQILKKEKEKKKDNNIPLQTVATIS

Chain of TLR-5 receptor on THP-1 cells (UniProt O60602) (O60602 21-858 limits assumed): as above

endotoxin-free flagellin protein (Alpha Diagnostic) (ligand)
IL-8 content in THP-1 supernatant, stimulation at 2.5 ug/mL [1]: 19.6 ng | In vitro relative potency (%), IL-8 [1]: 100% | In vitro relative potency (%), TNF-α [1]: 100% | TNF-α content in THP-1 supernatant, stimulation at 2.5 ug/mL [1]: 969 pg

B1: ANF fusion protein (N-terminal D0-D1-C terminal D1-D0-gE, LT2) (other)
chain: AQVINTNSLSLLTQNNLNKSQSALGTAIERLSSGLRINSAKDDAAGQAIANRFTANIKGLTQASRNANDGISIAQTTEGALNEINNNLQRVRELAVQSANSTNSQSDLDSIQAEITQRLNEIDRVSGQTQFNGVKVLAQDNTLTIQVGANDGETIDIDLKQINSQTLGLDTLNVQSPGISGGGGGILDSMGKAQPDLAEAAATTTENPLQKIDAALAQVDTLRSDLGAVQNRFNSAITNLGNTVNNLTSARSRIEDSDYATEVSNMSRAQILQQAGTSVLAQANQVPQNVLSLLRGGGGSGGGGSGGGGSSVLRYDDFHIDEDKLDTNSVYEPYYHSDHAESSWVNRGESSRKAYDHNSPYIWPRNDYDGFLENAHEHHGVYNQGRGIDSGERLMQPTQMSAQEDLGDDTGIHVIPTLNGDDRHKIVNVDQRQYGDVFKGDLNPKPQGQRLIEVSVEENHPFTLRAPIQRIYGVRYTETWSFLPSLTCTGDAAPAIQHICLKHTTCFQDVVVDVDCAENTKEDQLAEISYRFQGKKEADQPWIVVNTSTLFDELELDPPEIEPGVLKVLRTEKQYLGVYIWNMRGSDGTSTYATFLVTWKGDEKTRNPTPAVTPQPRGAEFHMWNYHSHVFSVGDTFSLAMHLQYKIHEAPFDLLLEWLYVPIDPTCQPMRLYSTCLYHPNAPQCLSHMNSGCTFTSPHLAQRVASTVYQNCEHADNYTAYCLGISHMEPSFGLILHDGGTTLKFVDTPESLSGLYVFVVYFNGHVEAVAYTVVSTVDHFVNAIEERGFPPTAGQPPATTKPKEITPVNPGTSPLIR
IL-8 content in THP-1 supernatant, stimulation at 5 ug/mL [2]: 10.8 ng | In vitro relative potency (%), IL-8 [2]: 55.3% | In vitro relative potency (%), TNF-α [2]: 57% | TNF-α content in THP-1 supernatant, stimulation at 5 ug/mL [2]: 552 pg

B2: ACF fusion protein (gE-N-terminal D0-D1-C-terminal D1-D0, LT2) (other)
chain: SVLRYDDFHIDEDKLDTNSVYEPYYHSDHAESSWVNRGESSRKAYDHNSPYIWPRNDYDGFLENAHEHHGVYNQGRGIDSGERLMQPTQMSAQEDLGDDTGIHVIPTLNGDDRHKIVNVDQRQYGDVFKGDLNPKPQGQRLIEVSVEENHPFTLRAPIQRIYGVRYTETWSFLPSLTCTGDAAPAIQHICLKHTTCFQDVVVDVDCAENTKEDQLAEISYRFQGKKEADQPWIVVNTSTLFDELELDPPEIEPGVLKVLRTEKQYLGVYIWNMRGSDGTSTYATFLVTWKGDEKTRNPTPAVTPQPRGAEFHMWNYHSHVFSVGDTFSLAMHLQYKIHEAPFDLLLEWLYVPIDPTCQPMRLYSTCLYHPNAPQCLSHMNSGCTFTSPHLAQRVASTVYQNCEHADNYTAYCLGISHMEPSFGLILHDGGTTLKFVDTPESLSGLYVFVVYFNGHVEAVAYTVVSTVDHFVNAIEERGFPPTAGQPPATTKPKEITPVNPGTSPLIRGGGGSGGGGSGGGGSAQVINTNSLSLLTQNNLNKSQSALGTAIERLSSGLRINSAKDDAAGQAIANRFTANIKGLTQASRNANDGISIAQTTEGALNEINNNLQRVRELAVQSANSTNSQSDLDSIQAEITQRLNEIDRVSGQTQFNGVKVLAQDNTLTIQVGANDGETIDIDLKQINSQTLGLDTLNVQSPGISGGGGGILDSMGKAQPDLAEAAATTTENPLQKIDAALAQVDTLRSDLGAVQNRFNSAITNLGNTVNNLTSARSRIEDSDYATEVSNMSRAQILQQAGTSVLAQANQVPQNVLSLLR
IL-8 content in THP-1 supernatant, stimulation at 5 ug/mL [2]: 6.41 ng | In vitro relative potency (%), IL-8 [2]: 32.7% | In vitro relative potency (%), TNF-α [2]: 11.6% | TNF-α content in THP-1 supernatant, stimulation at 5 ug/mL [2]: 112 pg

B3: ASF fusion protein (N-terminal D0-D1-gE-C-terminal D1-D0, LT2) (other)
chain: AQVINTNSLSLLTQNNLNKSQSALGTAIERLSSGLRINSAKDDAAGQAIANRFTANIKGLTQASRNANDGISIAQTTEGALNEINNNLQRVRELAVQSANSTNSQSDLDSIQAEITQRLNEIDRVSGQTQFNGVKVLAQDNTLTIQVGANDGETIDIDLKQINSQTLGLDTLNVQGGGGSGGGGSGGGGSSVLRYDDFHIDEDKLDTNSVYEPYYHSDHAESSWVNRGESSRKAYDHNSPYIWPRNDYDGFLENAHEHHGVYNQGRGIDSGERLMQPTQMSAQEDLGDDTGIHVIPTLNGDDRHKIVNVDQRQYGDVFKGDLNPKPQGQRLIEVSVEENHPFTLRAPIQRIYGVRYTETWSFLPSLTCTGDAAPAIQHICLKHTTCFQDVVVDVDCAENTKEDQLAEISYRFQGKKEADQPWIVVNTSTLFDELELDPPEIEPGVLKVLRTEKQYLGVYIWNMRGSDGTSTYATFLVTWKGDEKTRNPTPAVTPQPRGAEFHMWNYHSHVFSVGDTFSLAMHLQYKIHEAPFDLLLEWLYVPIDPTCQPMRLYSTCLYHPNAPQCLSHMNSGCTFTSPHLAQRVASTVYQNCEHADNYTAYCLGISHMEPSFGLILHDGGTTLKFVDTPESLSGLYVFVVYFNGHVEAVAYTVVSTVDHFVNAIEERGFPPTAGQPPATTKPKEITPVNPGTSPLIRGGGGSGGGGSGGGGSKAQPDLAEAAATTTENPLQKIDAALAQVDTLRSDLGAVQNRFNSAITNLGNTVNNLTSARSRIEDSDYATEVSNMSRAQILQQAGTSVLAQANQVPQNVLSLLR
IL-8 content in THP-1 supernatant, stimulation at 5 ug/mL [2]: 27.8 ng | In vitro relative potency (%), IL-8 [2]: 142% | In vitro relative potency (%), TNF-α [2]: 104% | TNF-α content in THP-1 supernatant, stimulation at 5 ug/mL [2]: 1000 pg

B4: recombinant VZV gE protein (gE extracellular region), expressed in eukaryotic cells from recombinant adenovirus (other)
chain: SVLRYDDFHIDEDKLDTNSVYEPYYHSDHAESSWVNRGESSRKAYDHNSPYIWPRNDYDGFLENAHEHHGVYNQGRGIDSGERLMQPTQMSAQEDLGDDTGIHVIPTLNGDDRHKIVNVDQRQYGDVFKGDLNPKPQGQRLIEVSVEENHPFTLRAPIQRIYGVRYTETWSFLPSLTCTGDAAPAIQHICLKHTTCFQDVVVDVDCAENTKEDQLAEISYRFQGKKEADQPWIVVNTSTLFDELELDPPEIEPGVLKVLRTEKQYLGVYIWNMRGSDGTSTYATFLVTWKGDEKTRNPTPAVTPQPRGAEFHMWNYHSHVFSVGDTFSLAMHLQYKIHEAPFDLLLEWLYVPIDPTCQPMRLYSTCLYHPNAPQCLSHMNSGCTFTSPHLAQRVASTVYQNCEHADNYTAYCLGISHMEPSFGLILHDGGTTLKFVDTPESLSGLYVFVVYFNGHVEAVAYTVVSTVDHFVNAIEERGFPPTAGQPPATTKPKEITPVNPGTSPLIR
IL-8 content in THP-1 supernatant, stimulation at 5 ug/mL [2]: 0 ng | In vitro relative potency (%), IL-8 [2]: 0% | In vitro relative potency (%), TNF-α [2]: 0% | TNF-α content in THP-1 supernatant, stimulation at 5 ug/mL [2]: 0 pg
